Data taken from patent US20250320281A1.

Experiments:
[1] = target: HIV-1 92RW020 Env (pseudovirus) (HIV-1); assay: cell-based or functional assay
[2] = target: HIV-1 92TH021 Env (pseudovirus) (HIV-1); assay: cell-based or functional assay
[3] = target: HIV-1 92UG005 Env (pseudovirus) (HIV-1); assay: cell-based or functional assay
[4] = target: HIV-1 92UG024 Env (pseudovirus) (HIV-1); assay: cell-based or functional assay
[5] = target: HIV-1 93IN905 Env (pseudovirus) (HIV-1); assay: cell-based or functional assay
[6] = target: HIV-1 94UG103 Env (pseudovirus) (HIV-1); assay: cell-based or functional assay
[7] = target: HIV-1 APV6 Env (pseudovirus) (HIV-1); assay: cell-based or functional assay
[8] = target: HIV-1 CMU02 Env (pseudovirus) (HIV-1); assay: cell-based or functional assay
[9] = target: HIV-1 Env of pseudovirus isolate MGRM-G-001 (HIV-1); assay: cell-based or functional assay
[10] = target: HIV-1 Env of pseudovirus isolate MGRM-G-004 (HIV-1); assay: cell-based or functional assay
[11] = target: HIV-1 Env of pseudovirus isolate MGRM-G-006 (HIV-1); assay: cell-based or functional assay
[12] = target: HIV-1 Env of pseudovirus isolate MGRM-G-009 (HIV-1); assay: cell-based or functional assay
[13] = target: HIV-1 Env of pseudovirus isolate MGRM-G-011 (HIV-1); assay: cell-based or functional assay
[14] = target: HIV-1 Env of pseudovirus isolate MGRM-G-013 (HIV-1); assay: cell-based or functional assay
[15] = target: HIV-1 Env of pseudovirus isolate MGRM-G-014 (HIV-1); assay: cell-based or functional assay
[16] = target: HIV-1 Env of pseudovirus isolate MGRM-G-015 (HIV-1); assay: cell-based or functional assay
[17] = target: HIV-1 Env of pseudovirus isolate MGRM-G-016 (HIV-1); assay: cell-based or functional assay
[18] = target: HIV-1 Env of pseudovirus isolate MGRM-G-017 (HIV-1); assay: cell-based or functional assay
[19] = target: HIV-1 Env of pseudovirus isolate MGRM-G-019 (HIV-1); assay: cell-based or functional assay
[20] = target: HIV-1 Env of pseudovirus isolate MGRM-G-027 (HIV-1); assay: cell-based or functional assay
[21] = target: HIV-1 JRCSF Env (pseudovirus) (HIV-1) (UniProt P20871); assay: cell-based or functional assay
[22] = target: HIV-1 MGRM-A-010 Env (pseudovirus) (HIV-1); assay: cell-based or functional assay
[23] = target: HIV-1 MGRM-C-026 Env (pseudovirus) (HIV-1); assay: cell-based or functional assay
[24] = target: HIV-1 MGRM-C-027 Env (pseudovirus) (HIV-1); assay: cell-based or functional assay
[25] = target: HIV-1 MGRM-C-028 Env (pseudovirus) (HIV-1); assay: cell-based or functional assay
[26] = target: HIV-1 MGRM-D-018 Env (pseudovirus) (HIV-1); assay: cell-based or functional assay
[27] = target: HIV-1 NL43 Env (pseudovirus) (HIV-1); assay: cell-based or functional assay
[28] = target: envelope of aMLV pseudovirus (negative control); assay: cell-based or functional assay
WT JR-FL gp120 (HIV-1) = assay: ELISA, antigen-coated wells

Sequence of 5329_C19 (PGT-136) (antibody) (VH): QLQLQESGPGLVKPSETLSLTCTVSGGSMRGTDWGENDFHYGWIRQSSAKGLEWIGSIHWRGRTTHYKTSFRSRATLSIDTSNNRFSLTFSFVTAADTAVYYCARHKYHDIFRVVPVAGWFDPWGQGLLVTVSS
Sequence of 5329_C19 (PGT-136) (antibody) (VL): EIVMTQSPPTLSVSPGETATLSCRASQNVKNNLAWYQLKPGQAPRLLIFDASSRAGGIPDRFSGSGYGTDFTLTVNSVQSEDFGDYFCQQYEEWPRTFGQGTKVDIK
Sequence of 5345_I01 (PGT-137) (antibody) (VH): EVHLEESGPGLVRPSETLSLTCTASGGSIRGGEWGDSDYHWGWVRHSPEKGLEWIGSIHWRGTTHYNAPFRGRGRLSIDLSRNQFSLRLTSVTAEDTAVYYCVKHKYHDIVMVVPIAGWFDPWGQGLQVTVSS
Sequence of 5345_I01 (PGT-137) (antibody) (VL): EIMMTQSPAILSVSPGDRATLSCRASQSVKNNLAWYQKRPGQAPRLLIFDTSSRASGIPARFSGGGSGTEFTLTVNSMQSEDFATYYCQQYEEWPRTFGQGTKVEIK

| Substance | neutralization IC50 (pseudovirus) [1] | IC50 (neutralizing activity, pseudovirus) [2] | IC50 (neutralizing activity, pseudovirus) [3] | IC50 (neutralizing activity, pseudovirus) [4] | IC50 (neutralizing activity, pseudovirus) [5] | IC50 (neutralizing activity, pseudovirus) [6] | IC50 (µg/mL), pseudovirus neutralization [9] | IC50 (µg/mL), pseudovirus neutralization [10] | IC50 (µg/mL), pseudovirus neutralization [11] | IC50 (µg/mL), pseudovirus neutralization [12] | IC50 (µg/mL), pseudovirus neutralization [13] | IC50 (µg/mL), pseudovirus neutralization [14] | IC50 (µg/mL), pseudovirus neutralization [15] | IC50 (µg/mL), pseudovirus neutralization [16] | IC50 (µg/mL), pseudovirus neutralization [17] | IC50 (µg/mL), pseudovirus neutralization [18] | IC50 (µg/mL), pseudovirus neutralization [19] | IC50 (µg/mL), pseudovirus neutralization [20] | IC50 (µg/mL), pseudovirus neutralization [28] | EC50 (WT JR-FL gp120 (HIV-1)) | further results |
| --- | --- | --- | --- | --- | --- | --- | --- | --- | --- | --- | --- | --- | --- | --- | --- | --- | --- | --- | --- | --- | --- |
| 5329_C19 (PGT-136) (antibody) | 0.738 µg/mL | > 10 µg/mL | > 10 µg/mL | 0.0915 µg/mL | 0.0135 µg/mL | > 10 µg/mL | 8.11 µg/mL | > 50 µg/mL | > 50 µg/mL | > 50 µg/mL | > 50 µg/mL | > 50 µg/mL | > 50 µg/mL | > 50 µg/mL | > 50 µg/mL | > 50 µg/mL | 44.3 µg/mL | 45.2 µg/mL | > 50 µg/mL | 0.2 µg/mL | IC50 (neutralizing activity, pseudovirus) [7]: > 10 µg/mL; IC50 (neutralizing activity, pseudovirus) [8]: > 10 µg/mL; IC50 (neutralizing activity, pseudovirus) [21]: > 10 µg/mL; IC50 (neutralizing activity, pseudovirus) [22]: > 10 µg/mL; IC50 (neutralizing activity, pseudovirus) [23]: 0.0065 µg/mL; IC50 (neutralizing activity, pseudovirus) [24]: > 10 µg/mL; IC50 (neutralizing activity, pseudovirus) [25]: > 10 µg/mL; IC50 (neutralizing activity, pseudovirus) [26]: > 10 µg/mL; IC50 (neutralizing activity, pseudovirus) [27]: > 10 µg/mL |
| 5343_B08 (PGT-135) (antibody) | 0.157 µg/mL | > 10 µg/mL | > 10 µg/mL | 0.0139 µg/mL | 0.0183 µg/mL | > 10 µg/mL | 0.393 µg/mL | > 50 µg/mL | > 50 µg/mL | > 50 µg/mL | > 50 µg/mL | > 50 µg/mL | > 50 µg/mL | > 50 µg/mL | > 50 µg/mL | 0.137 µg/mL | 0.145 µg/mL | 0.062 µg/mL | > 50 µg/mL | 0.1 µg/mL | IC50 (neutralizing activity, pseudovirus) [7]: > 10 µg/mL; IC50 (neutralizing activity, pseudovirus) [8]: > 10 µg/mL; IC50 (neutralizing activity, pseudovirus) [21]: 0.113 µg/mL; IC50 (neutralizing activity, pseudovirus) [22]: > 10 µg/mL; IC50 (neutralizing activity, pseudovirus) [23]: 0.0123 µg/mL; IC50 (neutralizing activity, pseudovirus) [24]: > 10 µg/mL; IC50 (neutralizing activity, pseudovirus) [25]: 2.16 µg/mL; IC50 (neutralizing activity, pseudovirus) [26]: 0.0433 µg/mL; IC50 (neutralizing activity, pseudovirus) [27]: 6.79 µg/mL |
| 5345_I01 (PGT-137) (antibody) | – | – | – | – | – | – | 41.7 µg/mL | > 50 µg/mL | > 50 µg/mL | > 50 µg/mL | > 50 µg/mL | > 50 µg/mL | > 50 µg/mL | > 50 µg/mL | > 50 µg/mL | 34.9 µg/mL | 0.126 µg/mL | 0.228 µg/mL | > 50 µg/mL | 0.1 µg/mL | – |
